Data set [1] can be described thus: Cytotoxicity assay (CytoTox-ONE). To be noted: human, HCAVSMCs.
Description: 200 μL of cell suspension (at 10,000 cells/well) were seeded onto 96-well plates to yield an approximate 70% confluence per well. Cells were allowed to adhere to the plate overnight. […] Treatments were subsequently removed and the cells were cultured in fresh complete growth medium for 24 hours. Cells were then washed 2× with PBS +/+ and cell viability was then determined by a CytoTox-ONE Homogenous Membrane Integrity assay (Promega) according to the manufacturer's protocol. Briefly, 100 μL of Ambion KDalert Lysis Buffer was added to each well, and then 100 μL of freshly prepared CytoTox-ONE reagent was added to each well. After 10 minutes of incubation, 50 μL of stop solution was added, and the fluorescence of each well (kλex=560 nm, λem, =590 nm) was determined with a TECAN Infinite M1000 Pro plate reader.
The subject of data set [2] is HCAVSMCs. Description: Flow cytometric intracellular uptake, retention and half-life (2 h treatment). The note with it: fluorescence 0 and 5 days after treatment removal; listed as MK2i. On the technique in general: Flow cytometry measures light scatter and fluorescence of single cells or particles in a stream.
Description: HCAVSMCs were grown to 80-90% confluence, harvested, and seeded at 20,000 cells/well in a 24 well plate and allowed to adhere overnight in low serum media (DMEM, 1% FBS, and 1% P/S). […] Following treatment, cells were washed with PBS −/−, washed with CellScrub buffer (Genlantis) for 10 minutes at room temperature to remove extracellular polyplexes and/or peptide, washed 2× in PBS −/−, and given fresh complete growth media. Cells were then incubated for an additional 0, 12, 24, 72, or 120 hours. Cells were then washed with PBS −/−, trypsinized, and resuspended in 0.1% Trypan blue in PBS (−/−) for analysis on a FACSCalibur flow cytometer (Becton Dickinson) with BD CellQuest™ Pro software (V 5.2). Data was exported and analyzed with FlowJo software (V 7.6.4). All samples were run in triplicate.
Data set [3] deals with HCAVSMCs. Description: Cytosolic vs. organelle bound peptide by digitonin semi-permeabilization. It is filed as cell-based, human. To be noted: Bafilomycin treatment. The procedure:
In order to quantify the cytosolic bioavailability of the MK2i and HSP20 peptides a method to separate cytosolic and organelle bound (i.e. endosomal, lysosomal, golgi, etc.) peptide was adapted from the methods developed by Liu et a140. The procedure was optimized for this experiment based upon LDH release from HCAVSMCs treated with varying concentrations of digitonin (Calbiochem) in buffer (150 mM NaCl, 0.2 mM EDTA, 20 mM HEPES-NaOH (pH 7.4), 2 mM DTT and 2 mM MgCL2) on ice for 10 mins on a rotary shaker operating at 100 RPM (supplementary FIG. 3). A concentration of 25 μg/mL was then chosen as the optimal digitonin concentration for selective semi-permeabilization of the HCAVSMC membrane and subsequently used for the analysis of intracellular peptide distribution.
To quantify intracellular distribution of the MK2i and p-HSP20 peptides, HCAVSMCs were seeded into a 96 well plate at a density of 20,000 cells/cm2 and allowed to adhere overnight in complete growth medium. A portion of the cells were pretreated with 500 nM Bafilomycin A1 (Sigma) for 30 minutes, and the Bafilomycin was included in subsequent peptide/NP treatment and in the post-treatment incubation phase to inhibit endosomal acidification. […] Treatments were removed and cells were incubated in fresh medium with or without 500 nM Bafilomycin A1 for 6 hours. […]

Data set [4] addresses T1, Aurora-A(h) (Homo sapiens, UniProt O14965).
T1 sequence (O14965 1-403): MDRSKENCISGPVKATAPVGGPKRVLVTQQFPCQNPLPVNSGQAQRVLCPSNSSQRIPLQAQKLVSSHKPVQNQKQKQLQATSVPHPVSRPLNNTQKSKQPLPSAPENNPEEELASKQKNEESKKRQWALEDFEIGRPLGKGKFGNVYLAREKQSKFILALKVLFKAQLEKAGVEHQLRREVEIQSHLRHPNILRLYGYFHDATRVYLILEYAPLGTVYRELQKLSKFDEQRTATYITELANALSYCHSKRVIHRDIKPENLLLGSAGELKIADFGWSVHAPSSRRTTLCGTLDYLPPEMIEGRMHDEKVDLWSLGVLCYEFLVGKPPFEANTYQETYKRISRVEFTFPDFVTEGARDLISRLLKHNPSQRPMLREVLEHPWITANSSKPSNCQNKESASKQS
Description: Kinase Profiling Assay. Format: biochemical. The note with it: 100 μM.

For data set [5], the target named is T2, EphA3(h) (Homo sapiens, UniProt P29320).
T2 sequence (P29320 21-983): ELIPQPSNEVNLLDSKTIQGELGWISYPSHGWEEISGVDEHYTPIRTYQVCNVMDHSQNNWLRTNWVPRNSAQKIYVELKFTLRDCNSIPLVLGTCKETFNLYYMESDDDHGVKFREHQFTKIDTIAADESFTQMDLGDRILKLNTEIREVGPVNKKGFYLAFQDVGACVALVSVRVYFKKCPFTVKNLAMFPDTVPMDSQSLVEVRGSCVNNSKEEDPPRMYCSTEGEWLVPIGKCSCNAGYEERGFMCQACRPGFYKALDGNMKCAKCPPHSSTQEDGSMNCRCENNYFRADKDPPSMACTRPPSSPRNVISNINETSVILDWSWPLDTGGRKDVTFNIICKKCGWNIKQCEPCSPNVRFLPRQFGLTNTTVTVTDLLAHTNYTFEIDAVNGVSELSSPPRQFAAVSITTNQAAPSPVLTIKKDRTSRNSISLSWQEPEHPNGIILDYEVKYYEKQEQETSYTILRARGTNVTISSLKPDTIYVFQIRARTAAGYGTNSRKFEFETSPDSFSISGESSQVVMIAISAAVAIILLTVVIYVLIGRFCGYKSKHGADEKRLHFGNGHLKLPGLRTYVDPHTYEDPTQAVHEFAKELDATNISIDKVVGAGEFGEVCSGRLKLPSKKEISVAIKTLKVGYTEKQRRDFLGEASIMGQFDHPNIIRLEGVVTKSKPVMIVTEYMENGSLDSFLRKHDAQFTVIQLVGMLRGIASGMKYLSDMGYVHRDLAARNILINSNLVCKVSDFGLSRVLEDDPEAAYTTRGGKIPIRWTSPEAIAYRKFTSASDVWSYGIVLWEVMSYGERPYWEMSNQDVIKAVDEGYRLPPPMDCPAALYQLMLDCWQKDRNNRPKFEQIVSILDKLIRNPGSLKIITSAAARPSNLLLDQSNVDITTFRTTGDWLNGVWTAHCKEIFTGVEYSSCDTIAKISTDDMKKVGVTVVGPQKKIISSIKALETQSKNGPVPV
Description: Kinase Profiling Assay. Format: biochemical. To be noted: 100 μM.

Data set [6] addresses Ab1(H396P)(h) (Homo sapiens, UniProt P00519, H396P). Description: Kinase Profiling Assay. Format: biochemical. To be noted: 100 μM.
Data set [7] deals with MRCKβ(h) (Homo sapiens, UniProt Q9Y5S2). Description: Kinase Profiling Assay. Format: biochemical. The note with it: 100 μM.
In data set [8] the target is CDK9/cyclin T1(h) (Homo sapiens, UniProt P50750). As to the kind of experiment: Kinase Profiling Assay. It is filed as biochemical. The note with it: 100 μM.
Data set [9] has as its target GRK5(h) (Homo sapiens, UniProt P34947). Description: Kinase Profiling Assay. It is filed as biochemical. To be noted: 100 μM.
Data set [10] addresses T3, TAK1(h) (Homo sapiens, UniProt O43318).
T3 sequence (O43318 1-303 limits assumed): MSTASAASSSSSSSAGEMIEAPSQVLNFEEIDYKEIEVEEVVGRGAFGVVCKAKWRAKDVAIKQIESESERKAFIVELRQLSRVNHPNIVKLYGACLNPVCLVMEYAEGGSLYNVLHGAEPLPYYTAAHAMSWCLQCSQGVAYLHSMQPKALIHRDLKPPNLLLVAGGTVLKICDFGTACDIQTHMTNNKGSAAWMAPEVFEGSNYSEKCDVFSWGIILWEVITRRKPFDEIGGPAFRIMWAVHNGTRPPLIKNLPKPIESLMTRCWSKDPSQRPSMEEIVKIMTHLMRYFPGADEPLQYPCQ
As to the kind of experiment: Kinase Profiling Assay. It is filed as biochemical. The note with it: 100 μM.

CDK9/cyclin T1(h), sequence (P50750 whole entry): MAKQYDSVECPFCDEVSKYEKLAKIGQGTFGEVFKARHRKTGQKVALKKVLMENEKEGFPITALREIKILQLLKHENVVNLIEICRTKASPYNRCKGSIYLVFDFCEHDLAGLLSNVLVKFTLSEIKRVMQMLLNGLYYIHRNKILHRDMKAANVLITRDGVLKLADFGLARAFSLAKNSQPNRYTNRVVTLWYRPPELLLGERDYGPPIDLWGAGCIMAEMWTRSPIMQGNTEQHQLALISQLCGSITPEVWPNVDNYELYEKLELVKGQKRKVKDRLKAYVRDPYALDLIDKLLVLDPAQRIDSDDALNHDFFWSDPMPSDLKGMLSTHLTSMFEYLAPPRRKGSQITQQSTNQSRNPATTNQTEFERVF
CDK9/cyclin T1(h), sequence (O60563 whole entry partner): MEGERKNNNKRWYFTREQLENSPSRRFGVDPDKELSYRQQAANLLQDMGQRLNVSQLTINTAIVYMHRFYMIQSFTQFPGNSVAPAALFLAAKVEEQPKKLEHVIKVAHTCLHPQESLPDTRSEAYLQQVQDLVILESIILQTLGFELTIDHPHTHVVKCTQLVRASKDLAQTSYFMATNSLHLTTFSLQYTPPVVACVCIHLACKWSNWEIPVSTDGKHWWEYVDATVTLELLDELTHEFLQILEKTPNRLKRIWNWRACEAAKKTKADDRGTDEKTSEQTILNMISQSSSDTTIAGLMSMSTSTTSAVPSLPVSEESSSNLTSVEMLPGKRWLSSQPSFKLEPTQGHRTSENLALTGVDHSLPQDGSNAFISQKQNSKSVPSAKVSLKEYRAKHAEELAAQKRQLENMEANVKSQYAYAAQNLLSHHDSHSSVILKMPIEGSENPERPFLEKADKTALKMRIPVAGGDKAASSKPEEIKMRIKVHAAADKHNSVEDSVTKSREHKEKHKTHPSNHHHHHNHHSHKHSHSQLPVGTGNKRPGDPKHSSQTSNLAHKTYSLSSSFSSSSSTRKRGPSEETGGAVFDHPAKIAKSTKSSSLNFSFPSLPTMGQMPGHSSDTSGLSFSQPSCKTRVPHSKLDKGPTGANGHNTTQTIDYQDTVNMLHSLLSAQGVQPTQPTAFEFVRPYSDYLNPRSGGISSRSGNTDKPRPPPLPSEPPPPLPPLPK
MRCKβ(h), sequence (Q9Y5S2 whole entry): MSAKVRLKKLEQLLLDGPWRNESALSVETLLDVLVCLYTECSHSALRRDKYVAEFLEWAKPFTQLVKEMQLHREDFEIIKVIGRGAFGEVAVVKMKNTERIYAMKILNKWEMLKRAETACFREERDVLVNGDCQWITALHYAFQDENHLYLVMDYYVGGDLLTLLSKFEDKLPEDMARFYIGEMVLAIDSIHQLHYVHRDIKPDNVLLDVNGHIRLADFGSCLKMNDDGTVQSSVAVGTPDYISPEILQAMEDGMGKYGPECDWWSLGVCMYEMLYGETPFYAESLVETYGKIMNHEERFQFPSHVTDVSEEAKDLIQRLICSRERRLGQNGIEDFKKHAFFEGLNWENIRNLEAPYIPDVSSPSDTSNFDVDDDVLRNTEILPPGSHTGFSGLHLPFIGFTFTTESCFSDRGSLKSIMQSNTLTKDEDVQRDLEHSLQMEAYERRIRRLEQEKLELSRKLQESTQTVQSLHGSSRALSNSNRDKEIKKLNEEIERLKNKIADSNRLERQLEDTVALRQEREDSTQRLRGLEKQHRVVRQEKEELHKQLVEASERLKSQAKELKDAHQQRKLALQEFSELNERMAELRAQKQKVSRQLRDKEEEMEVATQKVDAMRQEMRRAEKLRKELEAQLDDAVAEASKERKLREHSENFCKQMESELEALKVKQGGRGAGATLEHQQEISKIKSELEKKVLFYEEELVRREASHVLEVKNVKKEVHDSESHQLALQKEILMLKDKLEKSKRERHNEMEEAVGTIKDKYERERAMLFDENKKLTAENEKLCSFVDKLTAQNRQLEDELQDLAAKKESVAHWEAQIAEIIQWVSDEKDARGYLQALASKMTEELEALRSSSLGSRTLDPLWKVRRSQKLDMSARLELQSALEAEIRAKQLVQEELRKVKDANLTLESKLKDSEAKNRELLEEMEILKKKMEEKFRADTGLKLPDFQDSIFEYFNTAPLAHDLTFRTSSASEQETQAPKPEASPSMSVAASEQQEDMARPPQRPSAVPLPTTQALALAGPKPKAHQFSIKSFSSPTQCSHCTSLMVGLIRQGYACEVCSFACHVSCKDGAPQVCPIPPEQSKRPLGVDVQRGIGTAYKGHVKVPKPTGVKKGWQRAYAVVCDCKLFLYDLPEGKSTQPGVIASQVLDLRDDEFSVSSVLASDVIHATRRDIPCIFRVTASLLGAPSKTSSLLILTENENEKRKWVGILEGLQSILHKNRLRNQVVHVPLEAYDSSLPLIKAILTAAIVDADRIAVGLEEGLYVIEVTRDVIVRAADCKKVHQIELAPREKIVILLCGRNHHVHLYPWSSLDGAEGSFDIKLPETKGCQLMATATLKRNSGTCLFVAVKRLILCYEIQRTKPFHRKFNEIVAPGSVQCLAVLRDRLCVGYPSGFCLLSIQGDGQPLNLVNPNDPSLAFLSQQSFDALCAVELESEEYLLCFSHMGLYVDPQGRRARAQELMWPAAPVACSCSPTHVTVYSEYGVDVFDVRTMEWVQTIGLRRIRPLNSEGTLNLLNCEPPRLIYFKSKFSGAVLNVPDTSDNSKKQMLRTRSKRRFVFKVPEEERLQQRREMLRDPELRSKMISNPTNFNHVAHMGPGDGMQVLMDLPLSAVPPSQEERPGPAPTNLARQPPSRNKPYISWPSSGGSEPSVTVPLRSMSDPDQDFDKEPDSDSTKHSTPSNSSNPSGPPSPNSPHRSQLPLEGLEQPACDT
GRK5(h), sequence (P34947 whole entry): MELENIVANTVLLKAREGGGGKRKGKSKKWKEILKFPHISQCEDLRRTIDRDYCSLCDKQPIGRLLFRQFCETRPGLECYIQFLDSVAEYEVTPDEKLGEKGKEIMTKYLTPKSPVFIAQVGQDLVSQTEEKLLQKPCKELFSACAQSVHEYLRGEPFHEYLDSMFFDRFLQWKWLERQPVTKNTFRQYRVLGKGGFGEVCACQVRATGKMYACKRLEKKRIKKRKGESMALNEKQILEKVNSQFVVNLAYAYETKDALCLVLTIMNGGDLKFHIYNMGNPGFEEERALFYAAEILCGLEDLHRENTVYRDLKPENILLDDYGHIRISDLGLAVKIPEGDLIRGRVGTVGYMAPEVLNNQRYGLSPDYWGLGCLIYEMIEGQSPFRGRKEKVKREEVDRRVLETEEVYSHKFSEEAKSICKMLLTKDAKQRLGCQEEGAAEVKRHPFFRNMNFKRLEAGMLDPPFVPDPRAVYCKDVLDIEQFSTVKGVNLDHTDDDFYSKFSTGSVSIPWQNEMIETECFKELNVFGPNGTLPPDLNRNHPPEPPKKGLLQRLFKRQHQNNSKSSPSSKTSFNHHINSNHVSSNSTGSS

What is called viability is a per cent measure of how many cells are alive, often set against a control. Read a high viability as less harm to the cells. Regarding H-YARAAARQARAKALARQLGVAA-OH [MMI-0100], in data set [1], the viability at 2 h, 500 µM was determined as 76%. In data set [2], the “intracellular half-life (t1/2)” value turned out to be 98.4 h. For the same substance, in data set [3], the “cytosolic fraction of internalized free peptide” value was 9.64%±8.17%.

With “HRRIKAWLKKIKALARQLGVAA (Mammalian) [MMI-0500]”, the “% activity” value in data set [4] is reported as 110%; in data set [5], 33%; in data set [6] it was 51%; in [7], -10%; in data set [8], 6%.

On to “YARAAARQARAKALNRQLGVA (Mammalian) [MMI-0200]”, for which the “% activity” value in [9] was determined as 135%; in data set [10], 124%.
